Assay results reported in patent publication CN104592390A (SHANGHAI ZHANGJIANG BIOTECHNOLOGY CO LTD; SHANGHAI HAISI …, dated 2015).

Target: T1, 乙型肝炎表面抗原(HBsAg) (Hepatitis B virus)
T1 chain: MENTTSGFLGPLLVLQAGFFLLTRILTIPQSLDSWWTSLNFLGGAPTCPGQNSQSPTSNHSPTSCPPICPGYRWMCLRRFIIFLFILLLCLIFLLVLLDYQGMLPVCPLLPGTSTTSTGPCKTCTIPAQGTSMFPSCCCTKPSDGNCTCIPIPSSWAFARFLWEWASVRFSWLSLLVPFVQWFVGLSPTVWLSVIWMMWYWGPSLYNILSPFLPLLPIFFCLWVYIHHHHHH
Assay: ELISA affinity determination on HBsAg

B1: C4D2-BsAb (bispecific antibody, human IgG1, kappa)
VH: not shown
VL: DIVMTQSPLSLSVTPGEPASISCRSSQSLLHRSGNNYLDWYLQKPGHSPQLLIYVGSNRASGVPDRFSGSGSGTEYTLKISRVEAEDVGVYYCMQALQTPRTFGQGTKLEIKRTVAAPSVFIFPPELVMTQSPSSLSASVGDRVTITCRASQGIYNSIAWYQQKPGKAPKLLLYSTSTLLSGVPSRFSGSGSGTDYTLTITNLQPEDFATYYCQQYFVTPETFGQGTKVEIKRTVAAPSVFIFPPSDEQLKSGTASVVCLLNNFYPREAKVQWKVDNALQSGNSQESVTEQDSKDSTYSLSSTLTLSKADYEKHKVYACEVTHQGLSSPVTKSFNRGEC
notes: Dual-variable-domain format; also called 双特异性抗体C4D2-BsAb
  Kd: 3.88 nM
